Experimental data taken from paper PMC5095350, “Engineered AAA+ proteases reveal principles of proteolysis at the mitochondrial inner membrane” (Nature Communications, 2016).

How the values were obtained:
[1] = target: T1, hexYME1L (human) (UniProt Q96TA2)
T1 sequence: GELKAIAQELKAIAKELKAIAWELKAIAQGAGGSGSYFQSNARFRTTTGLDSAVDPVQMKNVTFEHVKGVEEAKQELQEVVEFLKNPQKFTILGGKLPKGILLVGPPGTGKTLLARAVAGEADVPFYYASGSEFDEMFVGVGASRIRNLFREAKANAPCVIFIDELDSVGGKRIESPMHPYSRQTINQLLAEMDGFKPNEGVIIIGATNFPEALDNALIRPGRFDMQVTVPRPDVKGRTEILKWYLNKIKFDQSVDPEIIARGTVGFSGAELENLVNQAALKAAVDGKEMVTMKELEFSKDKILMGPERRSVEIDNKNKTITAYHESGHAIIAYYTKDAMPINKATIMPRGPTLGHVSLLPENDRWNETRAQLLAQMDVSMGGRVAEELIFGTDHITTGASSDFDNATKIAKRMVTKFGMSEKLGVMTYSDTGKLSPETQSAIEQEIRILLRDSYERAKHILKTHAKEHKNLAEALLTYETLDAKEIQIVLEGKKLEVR

[2] = target: T1, hexYME1L (human); remark: listed apart in the source
[3] = target: T1, hexYME1L (human); remark: listed apart in the source
[4] = substrate: Nc1ncnc2c1ncn2[C@@H]1O[C@H](COP(=O)(O)OP(=O)(O)OP(=O)(O)O)[C@@H](O)[C@H]1O; assay: purified protein; details: Hill form of Michaelis-Menten equation, MgCl2 5 mM, pH 8.0, 37 °C, no protein substrate
[5] = target: the molecule itself; assay: SEC; analytical SEC, Superose 6 Increase 10/300 GL; 1 mg of protein in 200 μl; 50 mM Tris-HCl (pH 8.0), 100 mM NaCl, 0.5 mM TCEP; hexYME1L also with 5 mM EDTA or with ATPγS and MgCl2 (no change in migration)

## cp7-^SFGFP-ssrA
[1]
  KM of ATP-dependent degradation by hexYME1L (1 μM), loss of GFP fluorescence, 37 °C: 12 µM

## carboxymethylated I27 domain of human titin (domain or fragment)
[2]
  stimulation of the ATPase rate of hexYME1L (0.25 μM) by 20 μM substrate (not significant): 14%

## I27 domain of human titin (domain or fragment)
[2]
  stimulation of the ATPase rate of hexYME1L (0.25 μM) by 20 μM substrate (not significant): 6%

## cp7-^SFGFP-sul20C
[1]
  KM of ATP-dependent degradation by hexYME1L (1 μM), loss of GFP fluorescence, 37 °C: 15.2 µM

B1: β-casein (natural protein)
chain: RELEELNVPGEIVESLSSSEESITRINKKIEKFQSEEQQQTEDELQDKIHPFAQTQSLVYPFPGPIPNSLPQNIPPLTQTPVVVPPFLQPEVMGVSKVKEAMAPKHKEMPFPKYPVEPFTESQSLTLTDVENLHLPLPLLQSWMHQPHQPLPPTVMFPPQSVLSLSQSKVLPVPQKAVPYPQRDMPIQAFLLYQEPVLGPVRGPFPIIV
[3]
  initial rate of ATP-dependent degradation of β-casein (20 μM) by hexYME1L (1 μM), SDS-PAGE (β-casein molecules min^−1 enz6^−1): 0.49

B2: hexYME1L (Homo sapiens) (protein)
chain: RFRTTTGLDSAVDPVQMKNVTFEHVKGVEEAKQELQEVVEFLKNPQKFTILGGKLPKGILLVGPPGTGKTLLARAVAGEADVPFYYASGSEFDEMFVGVGASRIRNLFREAKANAPCVIFIDELDSVGGKRIESPMHPYSRQTINQLLAEMDGFKPNEGVIIIGATNFPEALDNALIRPGRFDMQVTVPRPDVKGRTEILKWYLNKIKFDQSVDPEIIARGTVGFSGAELENLVNQAALKAAVDGKEMVTMKELEFSKDKILMGPERRSVEIDNKNKTITAYHESGHAIIAYYTKDAMPINKATIMPRGPTLGHVSLLPENDRWNETRAQLLAQMDVSMGGRVAEELIFGTDHITTGASSDFDNATKIAKRMVTKFGMSEKLGVMTYSDTGKLSPETQSAIEQEIRILLRDSYERAKHILKTHAKEHKNLAEALLTYETLDAKEIQIVLEGKKLEVR
[4]
  K0.5: 1.4 mM

B3: hexYME1L (enzyme, human)
chain: T1 sequence
notes: cc-hex, de novo designed peptide that forms a hexameric coiled coil; replaces the N-terminal domain and transmembrane span of YME1L; 10-residue linker between cc-hex and YME1L-AP; human YME1L isoform 1, AAA+ ATPase domain and M41 protease domain, residues 317-773; also called hexYME1L-AP; hexameric YME1L; source: E. coli BL21 (DE3), purified (glutathione agarose, TEV cleavage, Ni-NTA, SEC); not …
[5]
  stoichiometry N: ~6
